Assay results from the supplement of paper PMC9732359.
± gives the uncertainty stated by the source.

Assay: protein stability index of a GFP-peptide fusion (yeast GPS) (PSI 1-4); higher = more stable; sorted into four equal gates, so the index is relative within each strain
Procedure, shortened: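 Peptides tiling yeast proteins in 17-residue segments were fused downstream of GFP, with Cherry expressed from the same plasmid. As a pooled library in yeast, mid-log cultures grown in leucine-free medium were sorted into four equal gates by GFP/Cherry fluorescence ratio. Gate plasmids were PCR-amplified and Illumina-sequenced, and barcodes linked reads to strains. Each peptide received a protein stability index equal to the sum of each gate's read frequency times its gate number.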

Sequence	protein stability index (doa10∆)	protein stability index (pdr5∆)	protein stability index (san1∆)	protein stability index (ubr1∆)
EYKKHFPPNLEKGENPS [UBP6]	2.9 ± 0.097	2.76 ± 0.055	2.42 ± 0.073	1.93 ± 0.053
DPTKVTEFEFYLLEELE [SSN8]	3.19 ± 0.065	3.28 ± 0.058	3.21 ± 0.068	3.25 ± 0.049
SLQDSIIKQENFNSVND [SSN2]	2.4 ± 0.11	1.83 ± 0.073	2.48 ± 0.078	2.73 ± 0.098
RKLINYTKKHLSSHSST [RPN4]	1.34 ± 0.063	1.71 ± 0.049	1.41 ± 0.088	1.28 ± 0.04
CKKKEMSQYQSTMKENK [YIL149C/MLP2]	2.49 ± 0.088	2.76 ± 0.073	1.42 ± 0.23	2.55 ± 0.071
ALTDFERFQVMVLRKQK [RPL14A]	1.96 ± 0.11	1.97 ± 0.11	1.62 ± 0.12	2.16 ± 0.065
TGVVYNVTKSSVGVIIN [RPL21A]	2.07 ± 0.09	2.6 ± 0.057	1.95 ± 0.095	2.18 ± 0.067
DTLDPALLRPGRLDRKV [RPT4]	3.02 ± 0.26			
QRRSWRQYVGQLAPSSV [DIS3]	2.06 ± 0.077	2.45 ± 0.18		2.36 ± 0.078
QGNPKKRPGKLSDYIPG [CYT1]	3.17 ± 0.066	3.24 ± 0.067	3.23 ± 0.044	3.17 ± 0.032
AHRVRDLMDEELRKHAQ [SKI6]	3.14 ± 0.14	3.39 ± 0.12	2.83 ± 0.12	3.29 ± 0.064
ITLVEPEILRFKVYEPL [RPS16A]		3.25 ± 0.21	2.54 ± 0.22	2.75 ± 0.074
LKSLYSFFNISPDAPKE [SIN4]	2.32 ± 0.093	1.38 ± 0.048	1.43 ± 0.079	1.84 ± 0.049
FEGTPPFSLTYVRTEET [YMR129W/POM152]	2.31 ± 0.052	2.63 ± 0.056	2.54 ± 0.059	2.6 ± 0.041
IFIRQLKENEENEDGNI [BRR2]	3.5 ± 0.094	3.37 ± 0.19	3.2 ± 0.067	2.01 ± 0.087
GGQTKPVFHKKAKTTKK [RPL42A]	2.72 ± 0.056	2.94 ± 0.076	2.73 ± 0.064	2.89 ± 0.045
QDISSSTRVEFEKLYSD [FAS2]		3.05 ± 0.24	3.27 ± 0.14	
RINTLPQVQLPVRALIV [ECM29]		1.93 ± 0.26		
AYVAIEQVKDDGTSTEK [RPN8]	2.48 ± 0.16	1.73 ± 0.13	3.23 ± 0.15	2.64 ± 0.085
DELCKLVTCEGSEEKAF [SRP54]	2.92 ± 0.18	2.3 ± 0.18	1.95 ± 0.18	2.25 ± 0.13
LQDVIALSIADDASSAE [RPC53]	2.47 ± 0.11	1.57 ± 0.079	2.16 ± 0.17	2.81 ± 0.077
HKPNEGRTPNISNGTIN [SIR4]	2.92 ± 0.071	2.9 ± 0.046	2.99 ± 0.056	3.07 ± 0.048
RNQILVSITDAPKIHIL [YMR129W/POM152]	1.43 ± 0.041	1.35 ± 0.036	1.26 ± 0.057	1.61 ± 0.038
SKDLRSVWKPIAAIIGR [IRR1]	2.56 ± 0.06	2.15 ± 0.032	2.75 ± 0.049	2.58 ± 0.038
SNISDEKSRISERDSKD [YMR129W/POM152]	3.06 ± 0.1	3.12 ± 0.076	2.87 ± 0.075	3.13 ± 0.063
HTKSDERSELLRLFNAP [SNF2]	2.83 ± 0.06	2.72 ± 0.065	2.78 ± 0.049	3.04 ± 0.06

Sequence	protein stability index (doa10∆)	protein stability index (pdr5∆)	protein stability index (san1∆)	protein stability index (ubr1∆)
RRIIQNAQQTFHIDHTK [RPO21]	2.81 ± 0.061	2.89 ± 0.061	3 ± 0.062	2.89 ± 0.066
NCFFDVIVPQIVLDEVR [DIS3]	1.62 ± 0.12	1.55 ± 0.17		1.47 ± 0.12
TEHSKVTRFDEKQIEEL [SRB6]	3.2 ± 0.14	3.26 ± 0.086	3.11 ± 0.081	3.26 ± 0.07
KNDNGGKMNNEVSTSTS [SWI3]	3.29 ± 0.08	3.14 ± 0.1	3.06 ± 0.053	2.65 ± 0.075
SRSSVCVKAIEALFQSR [YCG1]	3.14 ± 0.064	2.92 ± 0.085	3.04 ± 0.077	2.97 ± 0.066
GTPEATKGMITNLQRNV [NUT2]	2.95 ± 0.15	2.85 ± 0.12	2.94 ± 0.15	3.09 ± 0.19
TNVQRIAAYIRRHRNPD [SMC1]	3.1 ± 0.24	3.32 ± 0.22	3.29 ± 0.18	3.04 ± 0.16
VEELPTFHDYDMVKLDI [RRP42]	2.51 ± 0.055	2.75 ± 0.063	2.87 ± 0.045	3.13 ± 0.033
APKIHILDPSTEYCVGD [YMR129W/POM152]	2.91 ± 0.13	3.35 ± 0.092	2.97 ± 0.087	2.79 ± 0.13
RANVYVGFLVQLDLTGI [PRP8]	2.5 ± 0.05	2.13 ± 0.052	2.21 ± 0.057	2.45 ± 0.05
NFNSVNDANITSNKEGF [SSN2]	3 ± 0.11	3.25 ± 0.084	3.32 ± 0.054	3.12 ± 0.065
LYQTYHVLVGDLIKFSA [FAS1]	2.2 ± 0.05	2.43 ± 0.052	2.39 ± 0.044	2.31 ± 0.035
FNKNLGKGPGCGFWQPA [PRP8]	3.18 ± 0.16	3.25 ± 0.15	3.39 ± 0.14	3.54 ± 0.075
EDFAPLLAEEEELILPN [PRP8]	3.14 ± 0.17	3.38 ± 0.15	2.93 ± 0.066	2.78 ± 0.1
VEFKLPKELVPSHEKLK [CDC53]	2.37 ± 0.054	2.24 ± 0.045	2.24 ± 0.071	2.08 ± 0.045
TDRLSTTQRRYEKAQKD [SMC1]	3.33 ± 0.14	3.23 ± 0.095	2.63 ± 0.14	
PFQVSSFVKETKLHSGD [SRB8]	2.96 ± 0.088	2.77 ± 0.082	2.8 ± 0.085	2.91 ± 0.061
KALRRKIYINLALGSHN [SSN2]	3.05 ± 0.21	2.76 ± 0.15	2.4 ± 0.11	3.48 ± 0.15
EFNGFSLYQVDPSGSYF [PRE8]	2.19 ± 0.057	2.05 ± 0.08	2.1 ± 0.15	2.43 ± 0.077
ECLQAYIFFGPIYYQKL [RET1]	2.54 ± 0.077	2.65 ± 0.071	2.24 ± 0.1	2.72 ± 0.05
IAKLVAVLNVSPVYDVD [NUT1]	1.84 ± 0.056	2.05 ± 0.046	1.7 ± 0.084	1.75 ± 0.043
NLFPLKPKMLPIPSKPT [SRP68]	2.38 ± 0.11	2.55 ± 0.093	2.43 ± 0.16	2.61 ± 0.081
CLGIKDEEMLTSCTIPK [GAL11]	2.75 ± 0.075	2.98 ± 0.068	2.68 ± 0.049	3.14 ± 0.059
VDNDNWVYKTKGDGMTS [RPN1]	3.12 ± 0.1	3.27 ± 0.065	3 ± 0.071	3.1 ± 0.11
EFTSKIGFTIKEYENHS [SMC1]	2.59 ± 0.11	3.04 ± 0.061	2.84 ± 0.12	3.01 ± 0.063
